The text below walks through data of the nanobody polyreactivity screen of Harvey et al. (2022).

A short description of this data set: yeast display, Sf9 membrane polyspecificity reagent, FACS + sequencing; frameworks hold sequencing errors. The essentials:
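Galactose induction of a Saccharomyces cerevisiae BJ5465 synthetic nanobody display library ran 36–48 hours. The cells were then stained for 1 hour at 4 °C with 10% biotinylated, detergent-solubilized Sf9 membrane reagent, pulled down on streptavidin microbeads and FACS-sorted into low and high (top ~1%) gates on expression and reagent-binding fluorescence. Labels for polyreactivity follow the gate of origin.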
Regarding “QVQLVESGGGLVQAGGSLRLSGAASGRYLFTWTAMGWYRQAPGIERELVAGITSGGNTYYADSVKGRFTISRDNPKNTVYLQMNSLKPEDTAVYYCAKGDGRRGDPYSRYDYCGQGTQVTVSS”, the “polyreactivity (PSR sort gate)” value is recorded as “low polyreactivity”.

On to “QVQLVESGGGLVQAGGSLRLSGAASGSIFPGYAMGWYRQPPGKERELVATITWSGGSTYYADSVKGRFTISRDNAKNTVYLQMNSLKPEDSAVYYCAAERSWYTGFARDYDYWGQGTQVTVSS”, for which the “polyreactivity (PSR sort gate)” value is recorded as “low polyreactivity”. For the sequence “QVQLVESGGGLVQAGGSLRLSGAASGSIFSVYAMGWYRQAPGKERELVASISRSGGSTYYADSVKGRFTISRDNAKNTVYLQMNSLKPEDTAVYYCAAYHPIQEYDYWGQGTQVTVSS”, the “polyreactivity (PSR sort gate)” value is given as “high polyreactivity”. The entry for “QVQLVESGGGLVQAGGSLRLSGAATGSIFKIMGWYRQAPGKERELVAAISSSVGNTYYADSVKGRFTISRDNAKNTVYLQMNSLKPEDTAVYYCAAQSKYYQYYSWGQRTQVTVSS” is “high polyreactivity”; for “QVQLVESGGGLVQAGGSLRLSGASYGFIFVWYAMGWYRQAPGKEREFVAAITSLGGSTYYADSVKGRFTISRDNEKNSVYLHMYSLNPEDTADYYCNAEFFYRGSGYDSWGQGTQVTVSS” it is “high polyreactivity”. With “QVQLVESGGGLVQAGGSLRLSLAASGSIFARYAMGWYRQAPGKERELVAAITYTGGRTYYADSVKGRFTISSDYAKNTVYLKMNSLKPEDTAVFYCAKDGQATVRRGYDYWGQGTQVTVSS”, the “polyreactivity (PSR sort gate)” value is reported as “high polyreactivity”.

For the sequence “QVQLVESGGGLVQAGGSLRLSRAASGFTFPAYTMGWYRQAPGKERELVAAITSSGGNTYYADSVKGRFTISRDNAKHTVYLQMNSLKPEDTAVYYCATVSVRWPSNDHVRYDYWGQGTQVTVSS”, the “polyreactivity (PSR sort gate)” value is on record as “low polyreactivity”. The same measure for “QVQLVESGGGLVQAGGSLRLSRAASGITFGFNAMGWYRQAPGKERELVAAITWSVGRTYYADSVKGRFTISRDNAKNTVYLQMNSLKPEDTAVYYCAKVFEAGDDYFAYDYWGQGTQVTVSS”: “low polyreactivity”. Consider “QVQLVESGGGLVQAGGSLRLSRAASGRTFYGYAMGWYRQAPGKESELVARIRSGGSTNYADSVKGRFTISRDNAKNTVYLQMNSLIPEDTAVYYCAARPGAAGYKYYYWGQGTQVTVSS”, for which the “polyreactivity (PSR sort gate)” value is listed as “high polyreactivity”.

Regarding “QVQLVESGGGLVQAGGSLRLSSAASAFIFSSYAMGWYRQAPWKERELVAAITRNGGSTYYADSVKGRFTISRDNAKNTVYLQMNSLKPEDTAVYYCAAQRWRGVGRFDYWGQGTQVTVSW”, the “polyreactivity (PSR sort gate)” value is given as “high polyreactivity”. For the sequence “QVQLVESGGGLVQAGGSLRLSSAASAGIFAPNAMGLYRQAPGTEREFVAAISTGGGSTRYADSVKGRFTISRDNAKNTVYLQMNSLKPEDTAVYYCAATRVGVRRMDYWGQGTQVTVSS”, the “polyreactivity (PSR sort gate)” value is recorded as “low polyreactivity”. The same measure for “QVQLVESGGGLVQAGGSLRLSSAASGFIFQSYAMGWYRQAPGKERELVAAISASGGRTYYADSVKGRFTISRDNAKNTVYLQMNSLKPEDTAVYYCAAYRSYWAVYPRMYYWGQGTQVTVSS”: “high polyreactivity”; for “QVQLVESGGGLVQAGGSLRLSSAASGFTFYYNAMGWYRQAPGKERELVAAITRTGSTNYADSVKGRFTISRDNAKNTVYLQMNSLKPEDTAVYYCAKTYRRTNWGTYDYWGQGTQVTVSS”: “high polyreactivity”; for “QVQLVESGGGLVQAGGSLRLSSAASGFTSSRNAMGWYRQAPGKERELVATISSGGDTYYADSVKGRFTISRDNAKNTVYLQMNSLKPEDTAVYYCATDRAERTGYTRYVKTYNYWGQGTQVTVSS”: “low polyreactivity”. In the case of “QVQLVESGGGLVQAGGSLRLSSAASGGIFRIYGMGSYRQAPGKERELVADISIGGRTTYADSVKGRFTISRDNAKNTVYLQMHSLKPEDTAVYYCKTPYWYRIGQRLAWYDYWGQGTQVTVSS”, the “polyreactivity (PSR sort gate)” value is “low polyreactivity”. Turning to “QVQLVESGGGLVQAGGSLRLSSAASGGTFDPYAMGWYRQAPGKERELVAAISDGRRTYYADSVKGRFTISRDNAKNSVYLLMNSRNTEETAVYYFDKCRLTSRICYYWWSAYHPSDYWGQGTQVSVSS”, the “polyreactivity (PSR sort gate)” value was “low polyreactivity”. The same measure for “QVQLVESGGGLVQAGGSLRLSSAASGIIFITYAMGWYRQAPGKDRELVAVISFSGGGTYADSVKGRFTISRDNAKNTVYLQMNSLKPEDTAVYYCAARRHSVGDYWLIYDYWGQGTQVTVSS”: “low polyreactivity”; for “QVQLVESGGGLVQAGGSLRLSSAASGIIFYNYAMGWDRQAPGKEWEFVAAISWSGGSTNYADSVKGRFTISRDTAKNTVDLQMNSLQPEDTAVYYCAAEYYGWYYGREAYWGQGTQVTVSS”: “low polyreactivity”; for “QVQLVESGGGLVQAGGSLRLSSAASGINLEYYAMGWSRQAPGKERELVAAIDSTDGSTYYADSVKGRFTISRDNAKNTVYLQLNSLKPEDTAVYYWNVVVSWPLSLLRRDYWGQGTQVTVSS”: “low polyreactivity”. The same measure for “QVQLVESGGGLVQAGGSLRLSSAASGITFCRNTMGWYRQAPGKERELVAAIDSGGNTYADSVKGRFTISRDNAKNTVNLHINSLKPEYTAVYYCAKDSGPRGSYGYAFDSWGQGTQVTVSS”: “low polyreactivity”; for “QVQLVESGGGLVQAGGSLRLSSAASGITFDIYDMGWYRQAPGKERELVAAISYSGGSTYYADSVKGRFTISRDNAKNTVYLQMNSLTPEDTAVYDCAAAWYYNSDNEFDYWGQGTQVTVSS”: “low polyreactivity”; for “QVQLVESGGGLVQAGGSLRLSSAASGITFITYAMVWYRQAPGKERELVAAISSSGGSTYYADSVKGRFTFSRDNAKNTVYLKMNSLKPEDTAVYYCAAEYVWYFGWKYGYWGQGTQVTVSS”: “high polyreactivity”.

For the sequence “QVQLVESGGGLVQAGGSLRLSSAASGITFKYYVMGWYRQAPGKEREFVAAISWGGGSTYYADSVKGRFTISRDNAKITVYLQMNSLKPEDTAVYYCATSHGLYTRWYDYWGQGTQVTVSS”, the “polyreactivity (PSR sort gate)” value is on record as “high polyreactivity”. Consider “QVQLVESGGGLVQAGGSLRLSSAASGITFPWYAMGWSRQAPGKERELVAAISRSGGSTYADSVKGRFTISRDNAKNTVYLQMNSLKPEDTAVYYCAAGTYSGSRFDYWGQGTQVTVSS”, for which the “polyreactivity (PSR sort gate)” value is reported as “high polyreactivity”.

Consider “QVQLVESGGGLVQAGGSLRLSSAASGITFVWNAMGWYRQAPGKERELVATISRGGVRTYYADSVKGRFTISRDNAKNTVYLQMNSLKQEDTAVYYCAADGSYVHWEYGYWGQGTQVTVSS”, for which the “polyreactivity (PSR sort gate)” value is “low polyreactivity”. In the case of “QVQLVESGGGLVQAGGSLRLSSAASGLIFSVYAMGWYRQAPGKERELVAAISSRGGTTYYADSVKGRFTISRDNAKNTVYLQMNSLKPEDTAVYYCAARSWSYTYDYWGQGTQVTVSS”, the “polyreactivity (PSR sort gate)” value is listed as “high polyreactivity”.

Consider “QVQLVESGGGLVQAGGSLRLSSAASGLTFINYDMGWYRQAPAKERELVAAISQIGTSTYYADSVKRRFTISRDNAKNTVYLQMNSLKPEDTAVYYCAAEFPTVYIPWSEMDYWGQGTQVTVSS”, for which the “polyreactivity (PSR sort gate)” value is given as “high polyreactivity”. The same measure for “QVQLVESGGGLVQAGGSLRLSSAASGLTFSDYAMAWYRQAPGKERELVAGISSGGSTYYADSVKGRFTISRDNAKNTVYLQMNSLKPEDTAVYYCAATRYNRWPIKFDYWVQGTQVTVSS”: “high polyreactivity”; for “QVQLVESGGGLVQAGGSLRLSSAASGNTFRHYAMGRYRQAPGKERELVAAISYSGGSTYYADSVKGRFTISRDNAKNTVYLQMNSLKPEDTAVYYCAAYSYASYGVSGYYYWGQGTQVTVSS”: “high polyreactivity”; for “QVQLVESGGGLVQAGGSLRLSSAASGRIFGHYAMGWYRQAPGKERELVAAISRSGTRTYYADSVKGRFTISRDNAKNTVYLQMNSLKPEDTAVYYCAAYTYKGIYYYWGQGTQVTVSS”: “high polyreactivity”. Consider “QVQLVESGGGLVQAGGSLRLSSAASGRIFKGNAMGWYRQAPGKERELVAAISKRGGSTHYADSVKGRFTISRDNSKNTVYLQMNSLKPEDTAVYYCATDSYYVGAVHYYYWGQGTQVTVSS”, for which the “polyreactivity (PSR sort gate)” value is recorded as “high polyreactivity”. In the case of “QVQLVESGGGLVQAGGSLRLSSAASGRIFPRYAMGWYSQAPGKERELVAAISGSGGGTYYADSVKGRFTISRDNAKNTVYLQMNSLKPEDTAVYYCAAVATQEKYDYWGQGTQVTVSS”, the “polyreactivity (PSR sort gate)” value was “low polyreactivity”. With “QVQLVESGGGLVQAGGSLRLSSAASGRIFRGYTMGCSRQAPGKDRELVAAISRSGTRTYYADSVKGRFPISRDNAKNTGYLQMNSLTPEDTAVYDCAVDSTTAGTGMGYWGQGTQVTVSS”, the “polyreactivity (PSR sort gate)” value is on record as “high polyreactivity”. As for “QVQLVESGGGLVQAGGSLRLSSAASGRIFWAYLMGRYRQAPGKERELVATIRWRGGSTYYADSVKGRFTISRDNAKNTFYLQMIRLKLEDTAVYYCNADRYSRISPTRYDYWGQGTQVTVSS”, the “polyreactivity (PSR sort gate)” value is listed as “high polyreactivity”. The same measure for “QVQLVESGGGLVQAGGSLRLSSAASGRIFYRYTMGWYRQAPGKERELVAAITRGSTNYADSVKGRFTISRDNAKNTVYLQMNSLKPDDTAVYYWAKAYSRTDRFSSPYYYYWGQGTQVTVSS”: “high polyreactivity”; for “QVQLVESGGGLVQAGGSLRLSSAASGRISGYNMGWYRQAPGKERELVAAISNGGSTNYADSVKGRFTISRDNAKNTVYLQMNSLKPEDTAVYYCNRRVPYSFYSRGYYYWGQGTQVTVSS”: “high polyreactivity”; for “QVQLVESGGGLVQAGGSLRLSSAASGRNYPKYAMGSYRQAPGKERELVAAISQRGGSTYYADSVKGRFTISRDNAKNTVYLQMNSLKPEDTAVYYCAASYYRQSGEYDYWGQGTLVTVSS”: “low polyreactivity”. As to “QVQLVESGGGLVQAGGSLRLSSAASGRTFGGYAMGWYRQAPGKERELVAAISWTGGSTYDADSVKGRFTISRDNAKNTVYLQMNSLKPEDTAVYYCNRDVGRNYQGPEYYYWGQGTQVTVSS”, the “polyreactivity (PSR sort gate)” value was “low polyreactivity”.

Turning to “QVQLVESGGGLVQAGGSLRLSSAASGRTFHRNAMGWYRQAPGKERELVAAITGDGRTNYADSVKGRFTISRDNAKNTVYLQMNSLKPEDTAVYYCAARFSYRSYDYWGQGTQVTVSS”, the “polyreactivity (PSR sort gate)” value is “low polyreactivity”. The same measure for “QVQLVESGGGLVQAGGSLRLSSAASGRTFKYYGLGWYRQPPGKESQLVATISRSSSRTYYADSVKGRFTISRDNAKNTVYFKMNSLKPEDSAVYYCASLAPRSYDYDYWGKGTQVTVSS”: “high polyreactivity”; for “QVQLVESGGGLVQAGGSLRLSSAASGRTFQDNAMGSYRQAPGKERELVAAISWRGGSTNYADSVKGRFTISRDNAKNTVYLQMNSLIPEDTAVYYCNRDPRKYGKLDYWGQGTQVTVSS”: “low polyreactivity”.
